T1: human fibrin (immobilised, fibrin-Sepharose) (human, UniProt P02671 36-629; P02675 45-491; P02679 27-437)
T1 construct: Fibrin coupled to Sepharose beads; Its preparation and chain limits are not described; also called human fibrin-Sepharose
T1 sequence 1: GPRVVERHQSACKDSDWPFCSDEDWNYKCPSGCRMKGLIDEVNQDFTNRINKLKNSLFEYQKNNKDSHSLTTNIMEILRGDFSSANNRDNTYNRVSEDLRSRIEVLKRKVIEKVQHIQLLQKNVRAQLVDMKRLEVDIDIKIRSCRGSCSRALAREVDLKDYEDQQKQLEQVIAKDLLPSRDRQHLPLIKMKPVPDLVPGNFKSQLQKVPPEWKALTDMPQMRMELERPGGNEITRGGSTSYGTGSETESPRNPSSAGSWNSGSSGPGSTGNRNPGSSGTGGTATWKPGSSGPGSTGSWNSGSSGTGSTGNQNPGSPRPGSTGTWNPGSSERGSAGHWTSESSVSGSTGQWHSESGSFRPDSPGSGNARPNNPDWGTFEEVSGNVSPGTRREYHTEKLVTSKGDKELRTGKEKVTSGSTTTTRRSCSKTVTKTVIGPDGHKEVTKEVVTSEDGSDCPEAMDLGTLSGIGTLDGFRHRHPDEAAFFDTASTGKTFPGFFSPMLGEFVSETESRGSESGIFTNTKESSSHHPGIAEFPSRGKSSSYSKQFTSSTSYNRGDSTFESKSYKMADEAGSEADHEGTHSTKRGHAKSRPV
T1 sequence 2: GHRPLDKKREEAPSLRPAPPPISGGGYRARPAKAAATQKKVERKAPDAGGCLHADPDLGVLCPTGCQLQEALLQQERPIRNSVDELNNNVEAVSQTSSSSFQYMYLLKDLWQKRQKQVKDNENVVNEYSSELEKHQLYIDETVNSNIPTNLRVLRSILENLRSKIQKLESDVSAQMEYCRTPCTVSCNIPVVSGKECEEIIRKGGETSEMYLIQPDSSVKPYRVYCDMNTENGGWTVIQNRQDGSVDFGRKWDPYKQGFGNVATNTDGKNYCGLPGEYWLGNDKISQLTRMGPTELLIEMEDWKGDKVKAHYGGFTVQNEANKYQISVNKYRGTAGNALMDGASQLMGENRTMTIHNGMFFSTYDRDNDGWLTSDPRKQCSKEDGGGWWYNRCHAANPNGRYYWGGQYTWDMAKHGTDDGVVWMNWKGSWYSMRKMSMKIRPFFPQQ
T1 sequence 3: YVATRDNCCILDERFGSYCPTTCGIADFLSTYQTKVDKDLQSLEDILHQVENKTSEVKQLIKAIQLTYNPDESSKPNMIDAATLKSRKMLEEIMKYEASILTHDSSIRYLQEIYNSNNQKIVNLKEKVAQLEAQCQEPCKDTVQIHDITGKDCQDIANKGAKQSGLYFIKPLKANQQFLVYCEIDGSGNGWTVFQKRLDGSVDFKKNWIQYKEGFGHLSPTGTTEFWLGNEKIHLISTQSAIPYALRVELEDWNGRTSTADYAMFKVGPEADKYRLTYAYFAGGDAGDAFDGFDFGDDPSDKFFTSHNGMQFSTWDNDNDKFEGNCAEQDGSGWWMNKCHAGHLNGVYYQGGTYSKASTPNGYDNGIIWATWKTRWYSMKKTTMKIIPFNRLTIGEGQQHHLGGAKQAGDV

B1: SK-FBD(1,2) chimeric protein (other)
chain: MIAGPEWLLDRPSVNNSQLVVSVAGTVEGTNQDISLKFFEIDLTSRPAHGGKTEQGLSPKSKPFATDSGAMSHKLEKADLLKAIQEQLIANVHSNDDYFEVIDFASDATITDRNGKVYFADKDGSVTLPTQPVQEFLLSGHVRVRPYKEKPIQNQAKSVDVEYTVQFTPLNPDDDFRPGLKDTKLLKTLAIGDTITSQELLAQAQSILNKNHPGYTIYERDSSIVTHDNDIFRTILPMDQEFTYRVKNREQAYRINKKSGLNEEINNTDLISEKYYVLKKGEKPYDPFDRSHLKLFTIKYVDVDTNELLKSEQLLTASERNLDFRDLYDPRDKAKLLYNNLDAFGIMDYTLTGKVEDNHDDTNRIITVYMGKRPEGENASYHLAGGGQAQQMVQPQSPVAVSQSKPGCYDNGKHYQINQQWERTYLGNVLVCTCYGGSRGFNCESKPEAEETCFDKYTGNTYRVGDTYERPKDSMIWDCTCIGAGRGRISC
notes: Start residue 1 is inferred from primer MY-10, which hybridises at the natural TG site QAQQMV
B2: SK control (streptokinase, fibrin-Sepharose experiment) (other)
chain: IAGPEWLLDRPSVNNSQLVVSVAGTVEGTNQDISLKFFEIDLTSRPAHGGKTEQGLSPKSKPFATDSGAMSHKLEKADLLKAIQEQLIANVHSNDDYFEVIDFASDATITDRNGKVYFADKDGSVTLPTQPVQEFLLSGHVRVRPYKEKPIQNQAKSVDVEYTVQFTPLNPDDDFRPGLKDTKLLKTLAIGDTITSQELLAQAQSILNKNHPGYTIYERDSSIVTHDNDIFRTILPMDQEFTYRVKNREQAYRINKKSGLNEEINNTDLISEKYYVLKKGEKPYDPFDRSHLKLFTIKYVDVDTNELLKSEQLLTASERNLDFRDLYDPRDKAKLLYNNLDAFGIMDYTLTGKVEDNHDDTNRIITVYMGKRPEGENASYHLAYDKDRYTEEEREVYSYLRYTGTPIPDNPNDK

Experiments:
[1] = target: T1, human fibrin (immobilised, …); test: refolding with fibrin-Sepharose beads; washes with binding buffer and 2 M urea, elution with 6 M urea
[2] = target: T1, human fibrin (immobilised, …); test: fibrin-Sepharose affinity chromatography; washes with binding buffer and 2 M urea, elution with 6 M urea

Binder	fibrin-bound protein eluted with 6 M urea [1] [mg]	binding result [2]
B1	~4	–
B2	–	no binding
